One assay concerns the target PAD4 (Homo sapiens, UniProt Q9UM07). Briefly: Conversion (R to Cit) of substrate peptides by PAD4, mass spectrometry. The format is biochemical. As to conditions: for Conversion (%): PAD4; for Conversion: Table 7, PAD4, test system with 3 times less enzyme; for Conversion by PAD4 (%): Table 10. From the text:
From previous studies it was known that D-S-Q-F-A-F-R-G-A-S-A-S-D (designated here as L1: SEQ ID NO: 11) is a substrate for PAD2 and PAD 4. To obtain better substrates, and subsequently powerful inhibitors, we intended to identify structural elements that improve substrate properties. A set of 152 individual analog peptides was generated, each differing from L1 by one amino acid at one of the positions −4 to −1 or 1 to 4.
In Table 3 the conversion of each analog (R to Cit conversion) is depicted. Values of the analogs relate to the conversion of the analog compared to the conversion of L1 under standard conditions (100 means a conversion equal to L1, 50 means conversion of 50% of that of L1, 175 means conversion of 175% of that of L1). Numbers above 100 thus relate to amino acid substitutions that improve substrate properties.
Peptides of table 4 are represented by the following sequences SEQ ID NO: 22-31 and 33-46. Control peptide are represented by the following sequences SEQ ID NO: 11 as control L1 and SEQ ID NO: 32 as control L2. Unfortunately, a substantial number of designed peptides were too polar to be analyzed on our LC-MS system (indicated in Table 4 as n.t., not trapped on the column). We therefore also generated and tested these peptides containing two additional N-terminal F-residues to increase hydrophobicity. In this form peptides were trapped on the column and could be analyzed (see Table 5).
Based on the above results we designed 20 peptides containing multiple amino acids that improve substrate properties (see Table 7). The indicated peptides were synthesized and tested in order to identify the best substrate from this group. Here we used a test system with less enzyme (3 times less) compared to the experiments described above.
(§1) Conversion of arginine into citrulline in the substrate peptides by PAD2 or PAD4 using mass spectrometry was performed as follows. A candidate substrate peptide was incubated with a PAD as indicated for several hours at 37° C. The reaction was quenched by the addition with acetic acid. A sample was analysed on a Qtof mass spectrometer (Micromass, UK) and the mass spectrum was compared with that of the same peptide not treated with PAD. Normally, 2^+- and 3^+-ions are detected. The conversion (ΔM=0.98 Da) was calculated on the 2^+- and 3^+-ions individually, and subsequently averaged taking into account the relative peak height of the 2^+- and 3^+-signals (see FIG. 5).

The target of a further assay is PAD2 (Homo sapiens, UniProt Q9Y2J8). Nature of the assay: Conversion (R to Cit) of substrate peptides by PAD2, mass spectrometry. As to conditions: for Conversion (%): Table 9, PAD2; for Conversion by PAD2 (%): Table 10. The format is biochemical. As for the experimental part:
In a similar fashion as for PAD4 we identified improved peptide substrates for PAD2. Again L1 was used as a lead compound. The set of 152 peptides from Table 3 was used and testing was performed as described before.
as §1

Where [1] appears, read: Table 5, peptides with two additional N-terminal F-residues.

The source of these data is patent US8404647B2, “Peptidylarginine deiminase (PAD) inhibitors” (Chiralix B.V., priority 2008, dated 2013).

Marks after values point to notes of the source that are not given here. Ends that are not written are not given here.

Chain of PAD2 (Q9Y2J8 whole entry): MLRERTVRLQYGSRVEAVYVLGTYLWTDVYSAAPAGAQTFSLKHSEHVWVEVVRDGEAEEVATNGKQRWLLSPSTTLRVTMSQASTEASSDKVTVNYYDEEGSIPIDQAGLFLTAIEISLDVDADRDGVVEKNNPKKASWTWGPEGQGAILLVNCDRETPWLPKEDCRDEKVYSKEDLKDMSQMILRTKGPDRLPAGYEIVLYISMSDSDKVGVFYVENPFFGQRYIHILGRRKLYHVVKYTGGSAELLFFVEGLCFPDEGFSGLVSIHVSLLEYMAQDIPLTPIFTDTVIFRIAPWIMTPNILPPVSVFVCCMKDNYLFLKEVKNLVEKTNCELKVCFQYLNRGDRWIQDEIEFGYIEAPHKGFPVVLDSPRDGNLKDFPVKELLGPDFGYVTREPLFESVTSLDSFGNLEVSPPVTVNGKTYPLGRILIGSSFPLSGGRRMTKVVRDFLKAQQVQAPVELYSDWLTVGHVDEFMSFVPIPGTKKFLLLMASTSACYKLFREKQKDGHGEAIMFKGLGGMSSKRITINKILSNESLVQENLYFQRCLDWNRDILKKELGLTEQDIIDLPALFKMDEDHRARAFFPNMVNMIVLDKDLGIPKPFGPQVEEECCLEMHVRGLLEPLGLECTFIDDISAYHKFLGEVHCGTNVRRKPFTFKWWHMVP
Chain of PAD4 (Q9UM07 whole entry): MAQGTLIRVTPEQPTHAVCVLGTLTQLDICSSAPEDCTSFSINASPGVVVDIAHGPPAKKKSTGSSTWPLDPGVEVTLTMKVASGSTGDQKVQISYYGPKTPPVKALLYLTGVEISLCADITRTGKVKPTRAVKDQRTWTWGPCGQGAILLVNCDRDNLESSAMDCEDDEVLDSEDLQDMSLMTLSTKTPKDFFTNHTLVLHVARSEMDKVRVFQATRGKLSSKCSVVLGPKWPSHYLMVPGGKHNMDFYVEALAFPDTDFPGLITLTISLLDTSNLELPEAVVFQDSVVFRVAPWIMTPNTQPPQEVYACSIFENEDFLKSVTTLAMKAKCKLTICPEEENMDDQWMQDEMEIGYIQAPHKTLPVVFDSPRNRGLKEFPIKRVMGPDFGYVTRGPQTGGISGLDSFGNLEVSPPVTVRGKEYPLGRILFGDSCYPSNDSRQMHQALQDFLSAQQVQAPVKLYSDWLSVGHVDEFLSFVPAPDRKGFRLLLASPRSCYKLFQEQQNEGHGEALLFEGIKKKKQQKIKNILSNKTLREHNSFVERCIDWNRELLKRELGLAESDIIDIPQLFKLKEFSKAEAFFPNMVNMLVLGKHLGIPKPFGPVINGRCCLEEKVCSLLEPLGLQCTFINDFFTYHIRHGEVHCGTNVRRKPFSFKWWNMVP

On to “F-F-D-S-K-H-W-D-R-D-H-F-E-S-D (FFDSKHWDRDHFESD) [Peptide 0612-27]”, for which the “Conversion (%)” value with PAD4 (setting [1]) came to 100%.

Consider “D-S-K-K-W-S-R-E-Y-F-F-S-D (DSKKWSREYFFSD; not fully specified (C-terminus); printed as D-S-K-K-W-S-R-E-Y-F-F-S-D) [Peptide 0608-30]”, for which the “Conversion (%)” value with PAD4 (Table 4, 13-mer peptides) amounted to 90%.

For the substance “D-S-Q-W-A-F-R-G-A-F-A-S-D (DSQWAFRGAFASD) [Peptide 0735-33]”, the “Conversion (%)” value in the assay with PAD2 amounted to 82%.

In the case of “D-S-K-K-Y-D-R-G-F-L-W-S-D (DSKKYDRGFLWSD; not fully specified (C-terminus); printed as D-S-K-K-Y-D-R-G-F-L-W-S-D) [Peptide 0708-34]”, in the assay with PAD2, the “Conversion by PAD2 (%)” value amounted to 93%. Further, in the assay with PAD4, the Conversion is listed as 64 and the “Conversion by PAD4 (%)” value was 81%.

Regarding “D-S-K-F-K-F-R-Y-A-Y-A-S-D (DSKFKFRYAYASD; not fully specified (C-terminus); printed as D-S-K-F-K-F-R-Y-A-Y-A-S-D) [Peptide 0735-34]”, in the assay with PAD2, the “Conversion (%)” value is 91% and the “Conversion by PAD2 (%)” value was determined as 91%. In the assay with PAD4, the “Conversion by PAD4 (%)” value is reported as below 20%.

Consider “F-F-D-S-H-K-L-H-R-E-W-M-W-S-D (FFDSHKLHREWMWSD) [Peptide 0612-46]”, for which, in the assay with PAD2, the “Conversion by PAD2 (%)” value is recorded as 92 ** %. For the same substance, the “Conversion (%)” value in the assay with PAD4 (setting [1]) was found to be 100%. In addition, in the assay with PAD4, the “Conversion by PAD4 (%)” value is on record as 91%.

With “F-F-D-S-K-K-W-S-R-E-Y-F-F-S-D (FFDSKKWSREYFFSD) [Peptide 0612-32]”, in the assay with PAD2, the “Conversion by PAD2 (%)” value is recorded as 94%. Besides, the “Conversion (%)” value with PAD4 (setting [1]) came to 100%. The “Conversion by PAD4 (%)” value in the assay with PAD4 was 76%.

Regarding “D-S-K-W-H-H-R-D-H-L-Y-S-D (DSKWHHRDHLYSD; not fully specified (C-terminus); printed as D-S-K-W-H-H-R-D-H-L-Y-S-D) [Peptide 0708-18]”, the “Conversion by PAD2 (%)” value with PAD2 came to 90%. In addition, in the assay with PAD4, the Conversion came out at 60 and the “Conversion by PAD4 (%)” value is on record as 71%.

For the substance “F-F-D-S-K-H-K-D-R-E-Y-V-F-S-D (FFDSKHKDREYVFSD) [Peptide 0612-24]”, in the assay with PAD4 (setting [1]), the “Conversion (%)” value is 100%.

As to “D-S-H-K-L-D-R-E-Y-M-F-S-D (DSHKLDREYMFSD; not fully specified (C-terminus); printed as D-S-H-K-L-D-R-E-Y-M-F-S-D) [Peptide 0608-34]”, the “Conversion (%)” value with PAD4 (Table 4, 13-mer peptides) was determined as 90%.

In the assay with PAD4, “D-S-N-K-H-H-R-D-H-L-Y-S-D (DSNKHHRDHLYSD) [Peptide 0708-17]” registered a Conversion of 38.

With “D-S-K-H-K-D-R-E-Y-V-F-S-D (DSKHKDREYVFSD; not fully specified (C-terminus); printed as D-S-K-H-K-D-R-E-Y-V-F-S-D) [Peptide 0608-22]”, in the assay with PAD4 (Table 4, 13-mer peptides), the “Conversion (%)” value is reported as 90%.

Consider “D-S-Q-C-L-F-R-G-A-F-A-S-D (DSQCLFRGAFASD) [Peptide 0735-40]”, for which the “Conversion (%)” value with PAD2 worked out at 73%.

Regarding “D-S-H-H-W-D-R-E-W-F-W-S-D (DSHHWDREWFWSD; not fully specified (C-terminus); printed as D-S-H-H-W-D-R-E-W-F-W-S-D) [Peptide 0608-40]”, the “Conversion (%)” value with PAD4 (Table 4, 13-mer peptides) stood at 100%.

On to “D-S-Q-F-A-F-R-H-F-S-A-S-D (DSQFAFRHFSASD) [Peptide 0735-32]”, for which the “Conversion (%)” value with PAD2 came to 85%.

For “F-F-D-S-K-H-H-H-R-E-Y-L-F-S-D (FFDSKHHHREYLFSD) [Peptide 0612-28]”, the “Conversion (%)” value with PAD4 (setting [1]) is 100%.

As for “D-S-W-K-A-F-R-G-A-S-A-S-D (DSWKAFRGASASD) [Peptide 0735-29]”, the “Conversion (%)” value in the assay with PAD2 is reported as 70%.

On to “D-S-H-H-F-H-R-E-Y-I-F-S-D (DSHHFHREYIFSD; not fully specified (C-terminus); printed as D-S-H-H-F-H-R-E-Y-I-F-S-D) [Peptide 0608-38]”, for which the “Conversion (%)” value with PAD4 (Table 4, 13-mer peptides) amounted to 90%.

On to “F-F-D-S-H-K-W-S-R-D-H-F-E-S-D (FFDSHKWSRDHFESD) [Peptide 0612-47]”, for which the “Conversion (%)” value with PAD4 (setting [1]) stood at 100%.

As to “F-F-D-S-K-H-F-H-R-D-F-I-Y-S-D (FFDSKHFHRDFIYSD) [Peptide 0612-25]”, in the assay with PAD4 (setting [1]), the “Conversion (%)” value was found to be 100%.

As to “D-S-H-K-L-H-R-E-W-M-W-S-D (DSHKLHREWMWSD; not fully specified (C-terminus); printed as D-S-H-K-L-H-R-E-W-M-W-S-D) [Peptide 0608-44]”, the “Conversion (%)” value in the assay with PAD4 (Table 4, 13-mer peptides) is 95%.

Regarding “F-F-D-S-K-H-H-S-R-D-H-L-E-S-D (FFDSKHHSRDHLESD) [Peptide 0612-23]”, the “Conversion (%)” value with PAD4 (setting [1]) was 100%.

Take “F-F-D-S-H-H-W-D-R-E-W-F-W-S-D (FFDSHHWDREWFWSD) [Peptide 0612-42]”: the “Conversion (%)” value in the assay with PAD4 (setting [1]) was 100%.

For “F-F-D-S-H-H-K-D-R-D-H-V-E-S-D (FFDSHHKDRDHVESD) [Peptide 0612-39]”, the “Conversion (%)” value in the assay with PAD4 (setting [1]) was 100%.

In the case of “D-S-Q-F-A-H-R-N-A-S-A-S-D (DSQFAHRNASASD) [Peptide 0735-28]”, the “Conversion (%)” value in the assay with PAD2 was found to be 35%.

As to “F-F-D-S-H-K-H-H-R-D-H-L-E-S-D (FFDSHKHHRDHLESD) [Peptide 0612-43]”, the “Conversion (%)” value with PAD4 (setting [1]) turned out to be 100%.

For the substance “D-S-H-H-L-S-R-D-F-M-Y-S-D (DSHHLSRDFMYSD; not fully specified (C-terminus); printed as D-S-H-H-L-S-R-D-F-M-Y-S-D) [Peptide 0608-39]”, the “Conversion (%)” value in the assay with PAD4 (Table 4, 13-mer peptides) was 95%.

Take “D-S-M-C-A-F-R-G-A-K-K-S-D (DSMCAFRGAKKSD) [Peptide 0735-31]”: the “Conversion (%)” value with PAD2 came to 59%.

“D-S-K-W-F-D-R-D-H-L-Y-S-D (DSKWFDRDHLYSD; not fully specified (C-terminus); printed as D-S-K-W-F-D-R-D-H-L-Y-S-D) [Peptide 0708-16]”: the Conversion with PAD4 is recorded as 70.

For “F-F-D-S-H-H-L-S-R-D-F-M-Y-S-D (FFDSHHLSRDFMYSD) [Peptide 0612-41]”, the “Conversion (%)” value with PAD4 (setting [1]) amounted to 98%.

“D-S-H-K-F-D-R-D-F-L-Y-S-D (DSHKFDRDFLYSD; not fully specified (C-terminus); printed as D-S-H-K-F-D-R-D-F-L-Y-S-D) [Peptide 0708-28]”: in the assay with PAD4, the Conversion was 53.

Substance “D-S-W-W-H-K-R-D-K-L-Y-S-D (DSWWHKRDKLYSD) [Peptide 0708-23]” returned a Conversion with PAD4 of 18.

In the case of “F-F-D-S-H-K-L-D-R-E-Y-M-F-S-D (FFDSHKLDREYMFSD) [Peptide 0612-36]”, the “Conversion (%)” value with PAD4 (setting [1]) is listed as 100%.

For “D-S-Q-F-A-F-R-G-A-F-W-S-D (DSQFAFRGAFWSD) [Peptide 0735-30]”, the “Conversion (%)” value in the assay with PAD2 amounted to 65%.

In the case of “D-S-K-K-H-D-R-D-H-L-F-S-D (DSKKHDRDHLFSD; not fully specified (C-terminus); printed as D-S-K-K-H-D-R-D-H-L-F-S-D) [Peptide 0708-21]”, the Conversion with PAD4 stood at 53.

Regarding “D-S-K-K-H-D-R-D-K-L-F-S-D (DSKKHDRDKLFSD; not fully specified (C-terminus); printed as D-S-K-K-H-D-R-D-K-L-F-S-D) [Peptide 0708-24]”, the Conversion with PAD4 came out at 35.

In the case of “D-S-K-K-F-D-R-D-F-L-F-S-D (DSKKFDRDFLFSD; not fully specified (C-terminus); printed as D-S-K-K-F-D-R-D-F-L-F-S-D) [Peptide 0708-27]”, in the assay with PAD4, the Conversion was 51.

Take “D-S-Q-F-A-Y-R-N-A-K-A-S-D (DSQFAYRNAKASD) [Peptide 0735-36]”: the “Conversion (%)” value with PAD2 worked out at 74%.

Turning to “F-F-D-S-K-K-H-D-R-D-F-L-Y-S-D (FFDSKKHDRDFLYSD) [Peptide 0612-33]”, in the assay with PAD4 (setting [1]), the “Conversion (%)” value was 100%.

“F-F-D-S-K-K-L-H-R-D-H-M-E-S-D (FFDSKKLHRDHMESD) [Peptide 0612-31]”: the “Conversion (%)” value with PAD4 (setting [1]) turned out to be 88%.

In the case of “D-S-Q-W-A-F-R-N-A-F-A-S-D (DSQWAFRNAFASD) [Peptide 0735-38]”, the “Conversion (%)” value with PAD2 turned out to be 82%.

As to “D-S-Q-F-K-F-R-G-A-F-A-S-D (DSQFKFRGAFASD) [Peptide 0735-39]”, the “Conversion (%)” value with PAD2 is reported as 80%.

Turning to “D-S-N-W-H-H-R-D-H-L-Y-S-D (DSNWHHRDHLYSD) [Peptide 0708-19]”, the Conversion with PAD4 was 45.
